# Measurements published in patent publication US20230372536A1, “NANOMATERIAL AND METHODS OF USE THEREOF” (UNIVERSITY OF CONNECTICUT, priority 2020, published 2023).
# Key:
# [1] = free TGF-β1; cited from earlier work
# [2] = tested on: hMSCs; assay: Cell proliferation (CCK-8); type: cell-based, human; settings: for cell proliferation: 3 or 5 days of culture
# Method: Cell proliferation. Five groups of samples were added to an untreated 96-well plate for the cell proliferation experiment. For the JBNT group, 3.75 μL of 1 mg mL^−1 JBNTs was added to 596.25 μL distilled water to obtain a 600 μL JBNT solution. The concentration of the solution was 6.25 μg mL^−1. For the TGF-β1 group, 7.5 μL of 10 μg mL^−1 TGF-β1 was dispersed in 592.5 μL distilled water to obtain a 0.125 μg mL^−1 test solution. For the matrilin-3 group, 30 μL of 10 μg mL^−1 matrilin-3 was dispersed in 570 μL distilled water to obtain a 0.5 μg mL^−1 test solution. For the J/T/M NM group, 7.5 μL of 10 μg mL^−1 TGF-β1 was mixed with 30 μL of 10 μg mL^−1 matrilin-3 and pipetted several times. Then, 3.75 μL of 1 mg mL^−1 JBNTs was added to the solution and pipetted. The J/T/M NM solution was diluted with 558.75 μL distilled water. The final concentrations of JBNT, TGF-β1, and matrilin-3 samples were 6.25 μg mL^−1, 0.125 μg mL^−1, and 0.5 μg mL^−1, respectively. As a control group, 600 μL distilled water was used. Each sample group was divided into 6 wells, with each well receiving a 100 μL sample. The three plates were placed into a −80° C. freezer for one hour and then freeze-dried with a lyophilized instrument.
# hMSCs were seeded onto these plates. Each well received 100 μL cell suspension containing 5,000 cells. Three plates were incubated at 37° C. for 1 day, 3 days, or 5 days (5% CO2). After incubation, 10 μL CCK-8 solution was added to each well with cells. Then, each plate was incubated at 37° C. for another 2 h. The absorption values of the plates were measured with multi-mode microplate readers at 450 nm. A series of a known number of hMSCs were seeded onto a 96-well plate. After incubating for 4 h, the absorption values of the cells were measured with the CCK-8 assay. A standard curve was generated according to the absorption values and the numbers of hMSCs. Cell proliferation was calculated with the absorption standard curve.
# [3] = Zeta-potential test; type: physicochemical; settings: dispersed in H2O
# Method: Zeta-potential test. Three groups of samples were prepared. For the matrilin-3 group, 160 μL of 10 μg mL^−1 matrilin-3 was dispersed in 640 μL H2O to obtain an 800 μL test solution. For the mixed matrilin-3/TGF-β1 group, 160 μL of 10 μg mL^−1 matrilin-3 was mixed with 40 μL of 10 μg mL^−1 TGF-β1 and pipetted several times. The mixture was then dispersed in 600 μL H2O to obtain an 800 μL test solution. For the J/T/M NM group, 160 μL of 10 μg mL^−1 matrilin-3 was mixed with 40 μL of 10 μg mL^−1 TGF-β1 and pipetted several times. Then, 20 μL of 1 mg mL^−1 JBNTs was added to the solution and pipetted several times. Finally, the J/T/M NM solution was dispersed in 580 μL H2O to obtain an 800 μL test solution. The zeta-potential values of the three groups of samples were tested with a Zetasizer Nano ZS.
Molecule,plasma half-life [1],cell proliferation [2],cell number (proliferation) ([2]; one day of culture),zeta-potential [3]
"TGF-β1: Recombinant human TGF-β1 (CHO derived, PeproTech), chondrogenic growth factor",< 1.67 h,more obvious effects related to the promotion of cell proliferation,significantly higher cell numbers,
"matrilin-3: Recombinant human matrilin-3 protein (R&D Systems), cartilage-specific ECM protein (protein, UniProt O15232 29-486, looked up) Matrilin-3: DPVARPGFRRLETRGPGGSPGRRPSPAAPDGAPASGTSEPGRARGAGVCKSRPLDLVFIIDSSRSVRPLEFTKVKTFVSRIIDTLDIGPADTRVAVVNYASTVKIEFQLQAYTDKQSLKQAVGRITPLSTGTMSGLAIQTAMDEAFTVEAGAREPSSNIPKVAIIVTDGRPQDQVNEVAARAQASGIELYAVGVDRADMASLKMMASEPLEEHVFYVETYGVIEKLSSRFQETFCALDPCVLGTHQCQHVCISDGEGKHHCECSQGYTLNADKKTCSALDRCALNTHGCEHICVNDRSGSYHCECYEGYTLNEDRKTCSAQDKCALGTHGCQHICVNDRTGSHHCECYEGYTLNADKKTCSVRDKCALGSHGCQHICVSDGAASYHCDCYPGYTLNEDKKTCSATEEARRLVSTEDACGCEATLAFQDKVSSYLQRLNTKLDDILEKLKINEYGQIHR",,moderately increase cell proliferation,,approximately −15 mV
